# Source: PMC10994814, “Enzymatic activity of cGAS in the presence of three types of DNAs: limited cGAS stimulation by single-stranded HIV-1 SL2 DNA”
# B1: G3 Y-form DNA (dsDNA)
# DNA 1: GGGGAACTCCAGCAGGACCATTGGGG
# DNA 2: GGGCAATGGTCCTGCTGGAGTTCGGG
# Molecular target: human cGAS (Homo sapiens, UniProt Q8N884 1-522)
# Assay: EMSA; 1 uM DNA, 3 uM cGAS; EMSA: 1 uM DNA, 0-5 uM cGAS, 20 mM Tris-HCl pH 8.0 (4 C), 200 mM NaCl, on ice 30 min; 8% native PAGE in 25 mM Tris-HCl pH 8.5, 190 mM glycine; ethidium bromide
# Details: protein: recombinant; tags: none (N-terminal His6-lipoyl domain removed with TEV protease); 20 bp duplex, unpaired G3 on all four ends (fork at both ends)
# Chain of human cGAS (Q8N884 whole entry): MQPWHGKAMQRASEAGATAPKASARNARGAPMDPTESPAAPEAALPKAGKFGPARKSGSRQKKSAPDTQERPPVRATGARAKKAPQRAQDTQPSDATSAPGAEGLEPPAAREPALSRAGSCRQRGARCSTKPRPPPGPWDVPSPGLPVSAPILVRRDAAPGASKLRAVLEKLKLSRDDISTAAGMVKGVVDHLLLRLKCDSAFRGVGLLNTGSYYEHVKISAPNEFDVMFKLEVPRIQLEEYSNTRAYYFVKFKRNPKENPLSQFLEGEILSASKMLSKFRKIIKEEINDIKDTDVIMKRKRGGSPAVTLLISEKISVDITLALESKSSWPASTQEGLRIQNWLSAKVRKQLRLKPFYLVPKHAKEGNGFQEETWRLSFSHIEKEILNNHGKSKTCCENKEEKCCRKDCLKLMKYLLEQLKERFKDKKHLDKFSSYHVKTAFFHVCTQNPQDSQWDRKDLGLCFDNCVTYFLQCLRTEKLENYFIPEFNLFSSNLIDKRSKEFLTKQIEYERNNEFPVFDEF
binder,measurement,value
B1,binding signal,~0 % unbound DNA at cGAS/DNA ratio 3
